These results are taken from article PMC6405639.

The assay deals with 5(6)-TAMRA-Ahx(5-24)NPY (porcine). In words: fluorescence polarisation; homogenous binding assay; 5 nM 5(6)-TAMRA-Ahx(5-24)NPY with increasing concentrations of affinity purified Y2R_cysteine_deficient in Brij-58 micelles in binding buffer, 60 min, room temperature; fall of fluorescence in the S-plane; the paper says that the EC50 constitutes the Kd. (In general: In fluorescence polarisation assays a small probe gives low polarisation when free and higher when bound to something large.)

B1: Y2R_cysteine_deficient with C-terminal deca-histidine-tag (cell-free expressed) (receptor)
chain: MGPIGAEADENQTVEEMKVEQYGPQTTPRGELVPDPEPELIDSTKLIEVQVVLILAYASIILLGVIGNSLVIHVVIKFKSMRTVTNFFIANLAVADLLVNTLSLPFTLTYTLMGEWKMGPVLCHLVPYAQGLAVQVSTITLTVIALDRHRSIVYHLESKISKRISFLIIGLAWGISALLASPLAIFREYSLIEIIPDFEIVACTEKWPGEEKSIYGTVYSLSSLLILYVLPLGIISFSYTRIWSKLKNHVSPGAANDHYHQRRQKTTKMLVAVVVVFAVSWLPLHAFQLAVDIDSQVLDLKEYKLIFTVFHIIAMASTFANPLLYGWMNSNYRKAFLSAFRAEQRLDAIHSEVSVTFKAKKNLEVRKNSGPNDSFTEATNV
Broadly, the EC50 is the concentration that produces a half-maximal response. As for B1, the concentration for a half-maximal effect (EC50) was found to be 49 nM.
